Measured values reported in patent US6858210B1, “Therapeutic and diagnostic domain 1 β2GPI polypeptides and methods of using same” (La Jolla Pharmaceutical Co., priority 1998, dated 2005).

What was measured:
[1] = system: affinity purified β2GPI-dependent antiphospholipid antibody; assay: Cardiolipin based ELISA, recombinant β2GPI proteins bound to cardiolipin coated wells; assay type: binding, human; conditions: cardiolipin coated plates
Description: Microtiter plates (Immulon 1 #3350 from Dynex Technologies) were coated with 30 μl of a 50 μg/ml solution of cardiolipin in ethanol, dried overnight at 4° C., washed three times with PBS, pH 7.2, and blocked for one hour at room temperature with 75 μl of 5% (wt/v) fish gelatin, (Hipure Liquid Gelatin, Norland Products Inc. 695 Joyce Kilmer Ave., New Brunswick N.J., USA). The plates were washed three times with PBS, charged with 50 μl of full length recombinant β2GPI at 10 μg/ml in 5% fish gelatin and incubated at 37° C. for one hour. […] The optical density, at 550 nm, was determined by reading the plates in a microplate autoreader (Bio-Teck Instruments, model EL311).
Seven different recombinant β2GPI mutant proteins were examined to determine if they could support the direct binding of affinity purified β2GPI-dependent antiphospholipid antibody preparations in the presence of anionic phospholipid. All seven recombinant mutant β2GPI were assayed with rabbit anti-β2GPI and with an affinity purified β2GPI-dependent antiphospholipid antibody preparation. Each mutant recombinant β2GPI protein was tested, in a dose dependent fashion and GST-6his was included as a negative control. The recombinant mutant β2GPI proteins were bound to microtiter plates that had previously been coated with cardiolipin. […]

[2] = system: APS patient plasma; assay: Surface plasmon resonance (BIAcore): APS patient plasma/serum over immobilized β2GPI proteins; assay type: binding, human; set-up: key: Req = fitted equilibrium plateau BIAcore response; conditions: for Median Req / Req (mean ± sem): serum of 106 APS patients (GPL ≧ 20); for Req (mean ± sem): diluted 1:1
Description: (§1) Reagents. CM5 chips, NHS and EDC and HBS-EP buffer were from BIAcore. Human haptoglobin (phenotyope 1—1), a protein containing the short consensus repeat motif found in β2GPI, was immobilized in a separate flow cell on the chip and used as a negative control. Recombinant β2GPI and domain-deletion mutants of β2GPI were expressed in Tn5 cells using the baculovirus protein expression system and purified from the supernatants by nickel-chelation affinity column. Iverson et al. (1998) Proc. Natl. Acad. Sci. USA 95:15542-15546. Normal human plasma samples were purchased (George King Biomedical) or obtained in-house. Patient plasma samples from individuals diagnosed with either primary or secondary (to lupus) antiphospholipid antibody syndrome were obtained from a number of clinical sources.
(§2) The 55 controls used in this study were derived from a heterogenous sample. Thirty control samples (15 male; 15 female; mean age 34 yrs, range 19-45 yrs) purchased from George King Bio-Medical (Overland Park, Kans.), 5 local volunteers (3 male, 2 female), 2 pooled commercial sources and 18 blood bank donors of unknown origin were included in the analysis. The patient samples were collected from several sources and included patients with histories of venous thrombosis, arterial occlusions, cerebrovascular occlusions, multiple miscarriages and thrombocytopenia. All patients included in the study had IgG antiphospholipid antibody level (GPL) levels>20 by internal assay.
Total IgG fraction was isolated from plasma using Immunopure Plus protein G agarose beads and Immunopure IgG binding and elution buffers according to the manufacturers recommendation (Pierce).
(§3) Surface Plasmon Resonance. All experiments were performed using a BIAcore™ 2000 instrument at 25° C. with a flow rate of 10 μL/minute. Chip equilibration and binding studies were performed with degassed HBS-EP buffer, which consists of 0.01 M HEPES pH 7.4, 0.15 M NaCl, 3 mM EDTA and 0.005% (v/v) surfactant P20. Covalent coupling of protein ligands through their free amino groups to the CM5 chip was accomplished by flowing 40 μL of 0.05 M NHS/0.2M EDC over the chip to activate the chip, followed by exposure to the appropriate protein ligand. Recombinant β2GPI(His)6, domain-deletion mutants of β2GPI and haptoglobin were immobilized by flowing 50 μL of a 25 μg/mL solution in 10 mM acetate, (pH 4.8) over the NHS-activated CM5 chip. The excess reactive groups on the chip surface are then quenched with 40 μL of 1 M ethanoloamine, (pH 8.5). Human plasma samples (130 μL) were diluted 1:1 with HBS-EP, flowed over the β2GPI chip, and response values were collected for 780 seconds. The chips were regenerated between sample exposures with 80 μL of 0.1 M glycine-HCl (pH 2.1), 0.1 M NaCl. Since the approach to binding equilibrium was incomplete during the measurement period, the equilibrium binding value (Req) was determined by fitting the association curves to the following equation using the manufacturers software (BiaEvaluation version 2.2, Uppsala, Sweden) Rt=Req(I−e^−ks(t−t0))+R0 where Rt is the measured BIAcore response at time t, Req is the equilibrium plateau response, t is time, t0 is initial time, k, is an apparent association constant (ks=kaC+kdis, where ka is the association constant, C is the analyte concentration and kdis is the dissociation constant), and R0 is a response offset. In some experiments total IgG fractions from human plasma samples were obtained from binding to and acid elution from protein G. The plasma remaining after binding to protein G was remixed with fresh protein G beads and isolated as IgG-stripped plasma. Neutralized IgG preparations and IgG-stripped plasma diluted 1:1 with buffer were flowed over the β2GPI chip as described above. Results and Discussion

[3] = system: Normal human plasma; assay: Surface plasmon resonance (BIAcore): control plasma/serum over immobilized β2GPI proteins; assay type: binding; conditions: serum of 55 controls; for Req (mean ± sem): diluted 1:1
Description: as §1, §2
as §3, with “Neutralized IgG preparations and IgG-stripped plasma diluted 1:1 with buffer were flowed over the β2GPI chip as described above. Results and Discussion” left out

[4] = non-selective patient 6117, IgG-stripped Plasma (1:2)
[5] = non-selective patient 6117, Total IgG (1:4)
[6] = non-selective patient 6117, Whole Plasma (1:2)
[7] = non-selective patient 6194, IgG-stripped Plasma (1:2)
[8] = non-selective patient 6194, Total IgG (1:4)
[9] = non-selective patient 6194, Whole Plasma (1:2)
[10] = non-selective patient 6611, IgG-stripped Plasma (1:2)
[11] = non-selective patient 6611, Total IgG (1:4)
[12] = non-selective patient 6611, Whole Plasma (1:2)
[13] = non-selective patient 6627, IgG-stripped Plasma (1:2)
[14] = non-selective patient 6627, Total IgG (1:4)
[15] = non-selective patient 6627, Whole Plasma (1:2)
[16] = non-selective patient 6649, IgG-stripped Plasma (1:2)
[17] = non-selective patient 6649, Total IgG (1:4)
[18] = non-selective patient 6649, Whole Plasma (1:2)
[19] = non-selective patient 7013, IgG-stripped Plasma (1:2)
[20] = non-selective patient 7013, Total IgG (1:4)
[21] = non-selective patient 7013, Whole Plasma (1:2)
[22] = patient 6207, IgG-stripped Plasma (1:2)
[23] = patient 6207, Whole Plasma (1:2)
[24] = patient 6501, IgG-stripped Plasma (1:2)
[25] = patient 6501, Whole Plasma (1:2)
[26] = patient 6515, IgG-stripped Plasma (1:2)
[27] = patient 6515, Whole Plasma (1:2)
[28] = patient 6601, IgG-stripped Plasma (1:2)
[29] = patient 6601, Whole Plasma (1:2)
[30] = patient 6626, IgG-stripped Plasma (1:2)
[31] = patient 6626, Whole Plasma (1:2)
[32] = patient 6642, IgG-stripped Plasma (1:2)
[33] = patient 6642, Whole Plasma (1:2)
[34] = patient 6701, IgG-stripped Plasma (1:2)
[35] = patient 6701, Whole Plasma (1:2)
[36] = patient 6703, IgG-stripped Plasma (1:2)
[37] = patient 6703, Whole Plasma (1:2)
[38] = patient 7015, IgG-stripped Plasma (1:2)
[39] = patient 7015, Whole Plasma (1:2)
[40] = patient 7201, IgG-stripped Plasma (1:2)
[41] = patient 7201, Whole Plasma (1:2)

B1: 12345: recombinant full length human β2GPI (domains 1-5) with C-terminal GlyHis6, baculovirus expressed (protein)
chain: GRTCPKPDDLPFSTVVPLKTFYEPGEEITYSCKPGYVSRGGMRKFICPLTGLWPINTLKCTPRVCPFAGILENGAVRYTTFEYPNTISFSCNTGFYLNGADSAKCTEEGKWSPELPVCAPIICPPPSIPTFATLRVYKPSAGNNSLYRDTAVFECLPQHAMFGNDTITCTTHGNWTKLPECREVKCPFPSRPDNGFVNYPAKPTLYYKDKATFGCHDGYSLDGPEEIECTKLGNWSAMPSCKASCKLPVKKATVVYQGERVKIQEKFKNGMLHGDKVSFFCKNKEKKCSYTEDAQCIDGTIEVPKCFKEHSSLAFWKTDASDVKPCGHHHHHH
- direct binding of patient antibody [1]: readily detected
- BIAcore Req [2, 4]: 0
- BIAcore Req [2, 5]: 120
- BIAcore Req [2, 6]: 324
- BIAcore Req [2, 7]: 0
- BIAcore Req [2, 8]: 470
- BIAcore Req [2, 9]: 2046
- BIAcore Req [2, 10]: 0
- BIAcore Req [2, 11]: 251
- BIAcore Req [2, 12]: 892
- BIAcore Req [2, 13]: 0
- BIAcore Req [2, 14]: 132
- BIAcore Req [2, 15]: 324
- BIAcore Req [2, 16]: 0
- BIAcore Req [2, 17]: 253
- BIAcore Req [2, 18]: 758
- BIAcore Req [2, 19]: 0
- BIAcore Req [2, 20]: 115
- BIAcore Req [2, 21]: 241
- BIAcore Req [2, 22]: 0
- BIAcore Req ([2]; patient 6207, Total IgG (1:4)): 480
- BIAcore Req [2, 23]: 1450
- BIAcore Req [2, 24]: 0
- BIAcore Req ([2]; patient 6501, Total IgG (1:4)): 732
- BIAcore Req [2, 25]: 1526
- BIAcore Req [2, 26]: 0
- BIAcore Req ([2]; patient 6515, Total IgG (1:4)): 440
- BIAcore Req [2, 27]: 1024
- BIAcore Req [2, 28]: 0
- BIAcore Req ([2]; patient 6601, Total IgG (1:4)): 266
- BIAcore Req [2, 29]: 792
- BIAcore Req [2, 30]: 49
- BIAcore Req ([2]; patient 6626, Total IgG (1:4)): 1132
- BIAcore Req [2, 31]: 1622
- BIAcore Req [2, 32]: 48
- BIAcore Req ([2]; patient 6642, Total IgG (1:4)): 480
- BIAcore Req [2, 33]: 811
- BIAcore Req [2, 34]: 0
- BIAcore Req ([2]; patient 6701, Total IgG (1:4)): 460
- BIAcore Req [2, 35]: 952
- BIAcore Req [2, 36]: 0
- BIAcore Req ([2]; patient 6703, Total IgG (1:4)): 556
- BIAcore Req [2, 37]: 1001
- BIAcore Req [2, 38]: 0
- BIAcore Req ([2]; patient 7015, Total IgG (1:4)): 864
- BIAcore Req [2, 39]: 2092
- BIAcore Req [2, 40]: 0
- BIAcore Req ([2]; patient 7201, Total IgG (1:4)): 292
- BIAcore Req [2, 41]: 603
- Median Req [2]: 635
- Req (mean ± sem) ([2]; listed as D1-5): 730 ± 42
- Req (mean ± sem) ([2]; listed as β2-GPI(D1-5)): 730
- Median Req [3]: 201
- Req (mean ± sem) ([3]; listed as D1-5): 328 ± 52
- Req (mean ± sem) ([3]; listed as β2-GPI(D1-5)): 328

B2: -2345: recombinant β2GPI deletion mutant with domains 2-5 (protein)
chain: GRTPRVCPFAGILENGAVRYTTFEYPNTISFSCNTGFYLNGADSAKCTEEGKWSPELPVCAPIICPPPSIPTFATLRVYKPSAGNNSLYRDTAVFECLPQHAMFGNDTITCTTHGNWTKLPECREVKCPFPSRPDNGFVNYPAKPTLYYKDKATFGCHDGYSLDGPEEIECTKLGNWSAMPSCKASCKLPVKKATVVYQGERVKIQEKFKNGMLHGDKVSFFCKNKEKKCSYTEDAQCIDGTIEVPKCFKEHSSLAFWKTDASDVKPCGHHHHHH
- Req ([2]; 43/106 APS patients with negligible interaction): < 9
- BIAcore Req [2, 4]: 0
- BIAcore Req [2, 5]: 79
- BIAcore Req [2, 6]: 386
- BIAcore Req [2, 7]: 0
- BIAcore Req [2, 8]: 688
- BIAcore Req [2, 9]: 3197
- BIAcore Req [2, 10]: 0
- BIAcore Req [2, 11]: 177
- BIAcore Req [2, 12]: 1002
- BIAcore Req [2, 13]: 0
- BIAcore Req [2, 14]: 182
- BIAcore Req [2, 15]: 549
- BIAcore Req [2, 16]: 0
- BIAcore Req [2, 17]: 127
- BIAcore Req [2, 18]: 553
- BIAcore Req [2, 19]: 0
- BIAcore Req [2, 20]: 75
- BIAcore Req [2, 21]: 167
- BIAcore Req [2, 22]: 0
- BIAcore Req ([2]; patient 6207, Total IgG (1:4)): 0
- BIAcore Req [2, 23]: 19
- BIAcore Req [2, 24]: 0
- BIAcore Req ([2]; patient 6501, Total IgG (1:4)): 0
- BIAcore Req [2, 25]: 333
- BIAcore Req [2, 26]: 0
- BIAcore Req ([2]; patient 6515, Total IgG (1:4)): 0
- BIAcore Req [2, 27]: 259
- BIAcore Req [2, 28]: 0
- BIAcore Req ([2]; patient 6601, Total IgG (1:4)): 0
- BIAcore Req [2, 29]: 84
- BIAcore Req [2, 30]: 0
- BIAcore Req ([2]; patient 6626, Total IgG (1:4)): 0
- BIAcore Req [2, 31]: 37
- BIAcore Req [2, 32]: 0
- BIAcore Req ([2]; patient 6642, Total IgG (1:4)): 0
- BIAcore Req [2, 33]: 8
- BIAcore Req [2, 34]: 0
- BIAcore Req ([2]; patient 6701, Total IgG (1:4)): 0
- BIAcore Req [2, 35]: 199
- BIAcore Req [2, 36]: 0
- BIAcore Req ([2]; patient 6703, Total IgG (1:4)): 0
- BIAcore Req [2, 37]: 65
- BIAcore Req [2, 38]: 0
- BIAcore Req ([2]; patient 7015, Total IgG (1:4)): 0
- BIAcore Req [2, 39]: 158
- BIAcore Req [2, 40]: 0
- BIAcore Req ([2]; patient 7201, Total IgG (1:4)): 0
- BIAcore Req [2, 41]: 0
- Median Req [2]: 24
- Req (mean ± sem) [2]: 158 ± 36
- Median Req [3]: 103
- Req (mean ± sem) [3]: 160 ± 26
